B1: TRIM9 (parent)
chain: CVQCKMPVCYQCLEEGKHSSHEVK
B2: MYL5 (parent)
chain: FQFASIDVAGNLDYKALSYVITHG

Variants of: B1
Assay: protein stability index of a GFP-peptide fusion (GPS, HEK-293T) (PSI 1-6); higher = more stable
Conditions: c terminus: a fixed tail appended
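Note: lentivirally expressed fusions sorted by FACS into six bins by GFP to DsRed ratio, PSI derived from sequencing read proportions per bin multiplied by bin number.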

Protein stability index of substitutions, site by site:
K5: I 2.05, L 2.58, Y 2.56, M 3.87, P 3.52, T 3.38, Q 2.83, R 4.15, G 4.38, S 3.9, A 3.4
E14: K 3.99, G 4.14, D 2.99, A 3.12, T 3.53
V23: P 4.24, D 4.44, M 4, A 4.37
L13: W 4.7, P 4.47, I 4.08, E 4.16, K 4.53, V 4.45, C 4.88
K24: I 2.95, R 3.46, E 4.59, V 3.8, W 2.88, C 4.97, L 3.8, D 4.73
E15: P 3.88, G 4.15, T 3.69, D 4.07
V8: D 4.21, L 3.65, S 4.53, W 3.76, G 4.82, E 4.41, N 4.49
H21: Y 3.14, M 3.7, D 3.88, I 3.66, N 3.75
E22: H 3.79, G 3.32, A 3.57, M 3.65
G16: W 2.8, Q 2.64, A 4.02, S 3.7, E 3.94
Q11: W 2.93, G 4.92, E 3.57, L 2, K 3.95
S19: Q 4.51, M 3.72, W 3.35, V 3.86, Y 3.1, H 3.45
K17: Q 4.5, I 3.61, L 3.86, V 3.81, A 4.14
Q3: M 3.4, Y 3.04, I 3.6
C12: N 3.67, A 3.35, F 3.19, G 3.81, Y 3.58, E 4.25, Q 4.03
M6: T 3.96, Y 3.79, A 3.95, V 4.13, N 4.22, F 3.89, P 3.62
S20: V 3.75, R 4.38, K 4.26, D 4.3, A 3.68
C1: W 2.98, Q 4.03, R 3.58, L 3.27
Y10: E 4.32, C 3.58, Q 4.16, R 4.27
C9: Q 4.09, P 3.02, H 3.5, V 4.07, N 3.87, T 4.41
V2: S 4.25, K 4.29, F 3.51, H 4.63, D 4.16, A 3.97
H18: N 3.94, R 3.82, S 4.42
P7: A 4.02, V 3.52, E 4.35, D 3.11, F 2.48, K 3.84, T 3.08
C4: R 2.83, A 3.2, D 4.01, V 2.9, F 2.66, H 3.62, P 4.11

Variants of: B2
Assay: as above
Conditions: c terminus: a fixed tail appended

Protein stability index, by site and new letter:
F1: A 1.63, C 3.5, D 1.43, E 1.23, G 2.09, H 1.79, I 3.26, K 1.27, L 1.89, N 1.61, P 2.79, Q 2.23, R 1.67, S 1.18, T 1.55, V 3.25, W 3.55, Y 2.68
Q2: A 1.56, C 3.59, D 4.24, E 4.45, F 2.36, G 3.54, H 2.06, K 2.89, L 2.78, M 2.75, N 3.37, P 3.25, R 4.64, T 2.75

— the supplement of paper PMC10567573
